The values below come from patent publication US20210040232A1 (Regeneron, published 2021).

Assay [1] deals with T1, soluble human CTLA-4 expressed with a C-terminal myc-myc-polyhistidine tag (human).
T1 construct: soluble protein; also called hCTLA-4.mmh; hCTLA4.mmh
Put plainly: SPR, mAb capture, 25 C. (SPR reads the build-up and loss of mass on a sensor chip optically.)

The target of assay [2] is T2, soluble Macaca fascicularis CTLA-4 expressed with a C-terminal myc-myc-polyhistidine tag (Macaca fascicularis).
T2 construct: soluble protein; also called mf CTLA-4.mmh; mfCTLA4.mmh
T2 chain: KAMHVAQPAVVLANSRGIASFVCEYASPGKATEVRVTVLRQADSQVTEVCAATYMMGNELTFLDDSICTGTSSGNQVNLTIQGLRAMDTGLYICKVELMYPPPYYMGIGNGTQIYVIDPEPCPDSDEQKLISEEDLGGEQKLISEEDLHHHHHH
Briefly: SPR, mAb capture, 25 C.

Assay [3] deals with T3, human CTLA-4 (amino acids M1-N223) on stably transfected VI-fibroblast cells (human, UniProt P16410 36-223).
T3 construct: also called VI-fibroblast/hCTLA-4
T3 sequence (P16410 36-223 limits assumed): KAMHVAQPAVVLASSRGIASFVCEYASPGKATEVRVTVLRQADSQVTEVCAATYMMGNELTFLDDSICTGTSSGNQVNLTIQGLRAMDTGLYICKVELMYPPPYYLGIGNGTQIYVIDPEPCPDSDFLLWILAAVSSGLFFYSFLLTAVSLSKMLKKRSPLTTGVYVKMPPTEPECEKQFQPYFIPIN
Briefly: ECL cell binding, VI-fibroblast/hCTLA-4 cells.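 Also: antibodies bound to the cells on carbon electrode plates, detected via SULFO-TAG anti-IgG secondary (1 h, RT), electrochemiluminescence read as RLU over a concentration range.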

In assay [4] the target is T4, recombinant hCTLA-4-mFc (human CTLA-4 extracellular domain with a C-terminal Fc portion of mouse IgG2a) (human).
T4 construct: also called dimeric CTLA-4 protein
T4 sequence (chain, as listed by the source limits assumed): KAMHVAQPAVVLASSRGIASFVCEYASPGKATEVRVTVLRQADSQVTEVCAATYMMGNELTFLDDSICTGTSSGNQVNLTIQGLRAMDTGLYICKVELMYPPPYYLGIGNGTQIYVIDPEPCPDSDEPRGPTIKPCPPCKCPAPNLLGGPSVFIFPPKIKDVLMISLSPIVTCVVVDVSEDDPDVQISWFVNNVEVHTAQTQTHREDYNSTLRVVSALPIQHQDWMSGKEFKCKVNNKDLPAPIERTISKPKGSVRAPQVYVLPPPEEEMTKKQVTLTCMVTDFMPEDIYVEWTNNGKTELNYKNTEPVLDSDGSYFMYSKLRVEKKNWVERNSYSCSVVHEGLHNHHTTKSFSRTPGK
Put plainly: competition ELISA, 200 pM hCTLA-4-mFc on plate-coated hB7-1-hIgG1-6His.

The target of assay [5] is T4, recombinant hCTLA-4-mFc (human CTLA-4 …). Put plainly: competition ELISA, 400 pM hCTLA-4-mFc on plate-coated hB7-2-hIgG1-6His.
Assay [6] has the same target. Briefly: competition ELISA, 200 pM hCTLA-4-mFc on plate-coated hB7-1-hIgG1-6His; * value below theoretical bottom of assay. (In an ELISA, binding on a coated surface is turned into a signal by an enzyme label.)
The target is the same in assay [7]. Briefly: competition ELISA, 400 pM hCTLA-4-mFc on plate-coated hB7-2-hIgG1-6His; * value below theoretical bottom of assay.

T1 sequence (chain, as listed by the source limits assumed): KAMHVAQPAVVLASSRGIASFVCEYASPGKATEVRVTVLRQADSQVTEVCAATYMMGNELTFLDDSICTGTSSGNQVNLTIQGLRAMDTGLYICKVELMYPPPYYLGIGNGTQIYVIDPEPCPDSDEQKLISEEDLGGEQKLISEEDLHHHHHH

B1: H1H19281P (antibody, human IgG1, V domains shown)
VH: QVQLVESGGGVVQPGRSLRLSCAASGLTFSYYGMHWVRQAPGKGLEWVAVISYDGSNKYYADSVKGRFTISRDNSKNTLYLQMNSLRAEDAAVYYCAKDLGGDDYYGMDVWGQGTTVTVSS
VL: EIVLTQSPGTLSLSPGERATLSCRASQSVSRTYLAWYQQKPGQAPRLLIYGAFSRATGIPDRFSGSGSGTDFTLTISRLEPEDFAVYYCQQYGSSPYTFGQGTKLEIK
Broadly, the Kd is the equilibrium constant for the complex coming apart. A high value points to a looser complex. By koff is commonly meant a measure of how fast the partners let go of each other. The low end stands for slow dissociation, the high end for fast dissociation. Usually kon stands for the rate constant with which the complex forms. Read a high kon as fast association. In general, EC50 refers to the concentration at which the effect is half-maximal. What is called IC50 is the concentration needed to halve the response being measured. B1: in assay [1], binding was put at a Kd of 1.53 nM, the koff was found to be 0.000741 s⁻¹, the kon amounted to 484000 M⁻¹ s⁻¹ and the t1/2 was determined as 15.6 min. In assay [2], the dissociation constant Kd was found to be 2.14 nM, the off-rate constant (koff) stood at 0.00101 s⁻¹, the kon turned out to be 472000 M⁻¹ s⁻¹ and the t1/2 was found to be 11.5 min. Besides, in assay [3], it took 0.075 nM to reach a half-maximal effect (EC50) and the “ratio of RLU signal to parental VI-fibroblast at 0.4 nM Ab” value came out at 23 ratio. Moreover, the “% Blockade” value in assay [4] came out at 99%. Besides, the “% Blockade” value in assay [5] turned out to be 100%. For the same molecule, the IC50 in assay [6] came out at 0.094 nM. Besides, the IC50 in assay [7] amounted to 0.19 nM.
